Assay results: patent US12559537B2, “Nucleic acid encoding NKP30 receptor targeted therapeutics” (THE TRUSTEES OF DARTMOUTH COLLEGE, priority 2011, dated 2026)

Test system: K562 target cells
Assay: Cytotoxicity-blocking with soluble NKp30 (LDH release)
Assay type: cell-based, human
Conditions: 10 μg/ml, K562 targets, E:T 5:1, 5-h LDH release
Method: FIG. 7C further illustrates that lysis was mediated by the chimeric NKp30 constructs. […] Effector T cells modified with wtNKp30 or NKp30-CD28-3ζ were cocultured with target cells K562 in the presence of 10 μg/ml NKp30-mIgG2a or mouse IgG at a ratio of 5:1; the percentage of specific lysis was determined after a 5-h LDH-release assay. The data are presented as mean+/−SD and are representative of two independent experiments.
The cytotoxic activity of chimeric NKp30-modified human T cells against various tumor cell lines was determined. […] To confirm that chimeric NKp30-mediated killing is dependent on the interactions between NKp30 and its ligands, soluble NKp30 (NKp30-mIgG2a) was incubated with K562 target cells prior to the coculture with T cells.
Cytotoxicity of T cells against target cells was determined by an LDHrelease assay using the CytoTox 96 Non-Radioactive Cytotoxicity Assay kit (Promega, Madison, WI). Specific lysis was determined using the following equation: percentage of specific lysis=[(experimental−effector spontaneous−target spontaneous)/(target maximum−target spontaneous)]×100. In the cytotoxicity-blocking experiments, K562 target cells were preincubated with a soluble NKp30 receptor, NKp30-mIgG2a ([…]), for 30 min before coculture with T cells in an LDH-release assay.

With “NKp30-mIgG2a: soluble fusion protein: extracellular portion of human NKp30 fused to the mouse IgG2a hinge-CH2-CH3 portion” the “NKp30-28-3ζ-bearing T cell-mediated cytotoxicity in presence of soluble NKp30” value was “significantly reduced”.
